The text below walks through data of patent US20220125947A1 (published 2022).

The chains are these.
B1: VG9B465 (antibody, human IgG1, lambda, V domains shown)
VH: QVQLQQSGPGLVKPSETLSLTCTVSGGSITSYYWNWIRQPAGKGLEWIGRIYTIGNTNYNPSLKSRVTMSIDTSKHQFSLKLSSVTGADTAVYYCAREGYYESDGSFFPGAFNIWGQGTMVTVSS
VL: SSELTQPASVSGSPGQSITISCTGTSNDVGSYNLVSWYQQHPGKAPKLMIYAGSKRPSGISNRFSGSKSGNTASLTISGLQAEDEADYYCCSYAGTTNVVFGGGTKVTVLG
notes: also called antibody #74
B2: VG9B159 (antibody, human IgG1, lambda, V domains shown)
VH: EVQLVQSGPGLVKPSETLSLTCTVSGGSISSYYWSWIRQPAGKGLEWIGRFYTGGRNNYNPSFKSRVTMSVDTSQNQFSLKLSSVTAADTAVYYCARDMEYYYDRSGYSYWYFDLWGRGTTVTVSS
VL: SYELMQPPSVSVAPGQTARITCGGNNIGSKSVHWYQQKPGQAPVLVVYDDSDRPSGIPERFSGSNSGNTATLTISRVEAGDEADYYCQVWDSSSDHVVFGGGTKLTVLG
notes: also called antibody #73
B3: VG9B194 (antibody, human IgG1, lambda, V domains shown)
VH: EVQLLESGAEVKKPGASVKVSCKASGYTFTGDYMHWVRQAPGQGLEWMGWINPNSGYTNNAEKFQGRVTMTRDTSISTAYMELSRLSSDDTAVYYCTRELDALDVWGQGTMVTVSS
VL: QSVLTQPPSASGSPGQSVTISCTGTSSDVGGYNYVSWYQQHPGKAPKLMIYEVSKRPSGVPDRFSGSKSGNTASLTVSGLQAEDEADYYCNSYAGSNNFEVFGGGTKVTVLG
notes: also called antibody #75
B4: VG9B154 (antibody, human IgG1, lambda, V domains shown)
VH: QVQLQESGPGLVKPSETLSLTCTVSGGSISYYFWNWIRQPPGKGLEWIGYIYYSGSTNYNPSLKSRVTISLDTSKNQFSLKLSSVTAADTAVYYCAREGKWELRTTFDIWGQGTMVTVSS
VL: not shown
notes: also called antibody #72
B5: VG9B173 (antibody, human IgG1, lambda, V domains shown)
VH: QVQLQESGPGLVKPSETLSLTCTVSGGSINNYFWSWIRQPPGKGLEWIGYIYYSGSTNYNPSLKSRVTISVVTSMNQFSLKLSSVTAADTAVYYCAREGKWELRSAFDIWGQGTMVTVSS
VL: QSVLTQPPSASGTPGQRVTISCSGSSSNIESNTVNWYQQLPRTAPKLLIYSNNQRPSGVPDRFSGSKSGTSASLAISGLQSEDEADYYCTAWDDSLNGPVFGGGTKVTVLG
notes: also called antibody #77
B6: VG9B86 (antibody, human IgG1, kappa, V domains shown)
VH: QVQLQESGPGLVKPSETLSLTCTVSGDSISSSYWSWIRQPAGKGLECIGRFYSSGSTSYNPSLKSRVTMAIDTSKNQFSLKLTSVTAADTAVYYCARYSGSYWYFDLWGRGTTVTVSS
VL: EIVLTQSPATLSLSPGERATLSCRASQSVSSYLAWYQQRPGQAPRLLIYDTSNRATGIPARFSGSGSGTDFTLTISSLAPEDFAVYYCQQRSDWLLTFGGGTKVEIKR
notes: also called antibody #71
B7: VG9B156 (antibody, human IgG1, lambda, V domains shown)
VH: QVQLQESGPGLMKPSETLSLTCTVSNGSISGYFWNWIRQPPGKGLEWIGYIFYSGSTNYNPSLKSRVTISVDTSKNLVSLKLNSVTAADTAVYFCAKLGKWELRTAFDIWGQGTMVTVSS
VL: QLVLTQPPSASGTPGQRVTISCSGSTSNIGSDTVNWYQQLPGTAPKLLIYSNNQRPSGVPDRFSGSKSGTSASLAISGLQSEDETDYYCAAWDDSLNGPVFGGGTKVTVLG
notes: also called antibody #69
B8: VG9B205 (antibody, human IgG1, lambda, V domains shown)
VH: QVQLVQSGPGLMKPSETLSLTCTVSNGSISGYFWNWIRQPPGKGLEWIGYIFYSGSTNYNPSLKSRVTISVDTSKNLVSLKLNSVTAADTAVYFCAKLGKWELRTAFDIWGQGTMVTVSS
VL: not shown
notes: also called antibody #70
B9: VG9B182 (antibody, human IgG1, lambda, V domains shown)
VH: QVQLVESGPGLVKPSETLSLTCTVSGDSINNHFWSWIRQPPGKGLEWIGFVFYNGNTNYNPSLKSRVTISIDTSKSQFSLKLTSVTAADTAVYYCARVGRWVLRTAFDIWGQGTMVTVSS
VL: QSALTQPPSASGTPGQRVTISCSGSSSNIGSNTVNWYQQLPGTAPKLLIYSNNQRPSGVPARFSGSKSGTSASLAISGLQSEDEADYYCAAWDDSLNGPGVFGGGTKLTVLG
notes: also called antibody #76
B10: VG9B382 (antibody, human IgG1, lambda, V domains shown)
VH: QVQLQESGPGLVKPSETLSLTCTVSGDSISGYYWNYIRQPAGKGLDWIGRIFTTGNTNYNPSLKSRVTMSVDTSKNQFSLKLTSVTAADTAVYYCARERWDSSSSALYFDYWGQGTLVTVSS
VL: QSVLTQPPSVSGAPGQRVTISCTGSSSNIGADYDIKWYQQLPGTAPKLLIYGNSNRPSGVPDRFSGSKSGTSVSLAITGLQAEDEADYYCQSYDSSMSGYVVFGGGTKLTVLG
notes: also called antibody #68
B11: VG9B372 (antibody, human IgG1, kappa, V domains shown)
VH: QVQLQESGPGLVKPSQTLSLTCTVSGGSISNGGFYWSWIRQHPGKGLEWLGYINYSGSTYYNPSLESRGTISLDTSKNQFSLKLRSVTAADTAVYYCARDRNYEWNFDLWGRGTLVTVSS
VL: EIVMTQSPATLSLSPGEGATLSCRASQSVSSYLAWYQQKPGQAPRLLVYDASNRATGIPARFSGSGSGTAFTLTITSLEPEDFVVYYCQQRSNWPLTFGGGTKLEIKR
notes: IgG1, kappa
B12: VG9B380 (antibody, human IgG1, lambda, V domains shown)
VH: QVQLQESGPGLVKPSETLSLTCTVSGGSISNYYWSWIRQPAGKGLEWIGRIYPSGITSYDPSLKSRVTMSLDTSKNQFSLKLTSVTAADTAVYYCAGIMGTKGAFDIWGQGTMVTVSS
VL: QSALTQPASVSGSPGQSITISCTGTSSDVGGYNYVSWYQQHPGKAPKLLIYEVSNRPSGVSNRFSGSKSGSTASLTISGLQAEDEADYYCSSYTSTSVVFGGGTKLTVLG
notes: IgG1, lambda
B13: VG9B65 (antibody, human IgG1, kappa, V domains shown)
VH: QVQLVQSGAEVKKPGSSVKVSCKASGGTFNIYAINWVRQAPGQGLEWMGGIIPFFGTANYAQKFQDRVTITADKSTNTAYMELSSLRSEDTAVFYCARGGDSGYDWGFDYWGQGTLVTVSS
VL: DIVMTQTPLSSPVTLGQPASISCRSSQSLVHSDGNTYLSWLQQRPGQPPRLLIYQISNRFSGVPDRFSGSGAGTDFTLNISRVEADDVGVYYCMQATQFPLTFGGGTKVEIKR
notes: IgG1, kappa
B14: VG9B114 (antibody, human IgG1, kappa, V domains shown)
VH: EVQLVESGGDLVQPGGSLRLSCAASGFTFSRYDMHWVRQATGKGLEWVSAIGSAGDTYYPGSVKGRFTISRENAKNSLYLQMNSLRAGDTAVYYCARGKWELRDAFDIWGQGTMVTVSS
VL: DIVMTQSPSFLSASVGDRVTITCRASQGIHSYLAWYQQKPGKAPKLLIYVASTLQSGVPSRFSGSRSGTEFTLTISSLQPEDFATYYCQQLNSYPYTFGQGTKLEIKR
notes: IgG1, kappa
B15: VG9B81 (antibody, human IgG1, kappa, V domains shown)
VH: QVQLQESGPGLVKPSETLSLTCSVSGGSINTYYWSWFRQPAGKGLELIGRIYTSDNTNYNPSLKSRVTMSVDTSKNQFSLKLSSVTAADTAVYYCARYNWNYWYFDLWGRGTLVTVSS
VL: DIQMTQSPSFLSASVRDRVNITCRASQGISSYLAWYQQKPGKAPKLLIYTASTLQSGVPSRFSGSGSGTEFTLTISSLQPEDFATYYCQHLNSYPYTFGQGTKVEIKR
notes: IgG1, kappa
B16: VG9B208 (antibody, human IgG1, lambda, V domains shown)
VH: QVQLQESGPGLVKPSETLSLTCTVSGGSISGYYWSWIRQPPGKGLELIGYIFYSGSINYNPSLKNRVTISLDTSKNQFSLKLTSVTAADTAVYYCARVGKWELRSSFDIWGQGTMVTVSS
VL: QSVLTQPPSVSAAPGQKVTISCSGSTSNIGNNDVSWYQQLPGTAPKLLIYDNNKRPSGIPDRFSGSKSGTSATLGITGLQTGDEADYYCGTWDSSLSVWVFGGGTKLTVLG
notes: IgG1, lambda
B17: VG9B203 (antibody, human IgG1, lambda, V domains shown)
VH: QVQLVQSGPGLVKPSETLSLTCTVSGDSIGHYYWNWIRQPAGKGLEWIGRIYTSGSTNYNPSLKSRVTMSVDTSKNQFSLKLSSVTAADTAVYYCARSGGNFYWYFDLWGRGTLVTVSS
VL: QSVLTQPPSVSAAPGQKVTISCSGSSSNIGNNYVSWYQQVPGTAPKLLIYDNNKRPSGIPDRISGSKSGTSATLGITGLQTGDEADYYCGTWDSSLSAGVFGGGTKVTVLG
notes: IgG1, lambda
B18: VG9B147 (antibody, human IgG1, lambda, V domains shown)
VH: QVQLQESGPGLVNPSETLSLTCTVSGGSISGYFWNWIRQPPGKGLEWIGYIFYSGSTNYNPSLKSRVTISVDTSKNQFSLKLSSVTAADTAIYYCAREGKWELRSTFDIWGQGTMVTVSS
VL: SSELTQDPAVSVALGQTVRITCQGDSLRSYYATWYQQKPGQAPILVIYGENNRPSGIPDRFSGSRSGNTASLTITGAQAEDEADYYCNSRDTGDHHLVFGGGTKLTVLG
notes: IgG1, lambda
B19: VG9B177 (antibody, human IgG1, lambda, V domains shown)
VH: QVQLQESGPGLVKPSETLSLTCTVSGGSINNYFWSWIRQPPGKGLEWIGYIFYSGSTNYNPSLKSRVTISIDTSKNQFSLKVNSVTAADTAVYYCARVGKWELRTAFDIWGQGTMVTVSS
VL: QSALTQPASVSGSPGQSITISCTGTSSDVADYNYVSWYQQHPGKAPKLMIYEVSNRPSGVSNRFSGSKSGNTASLTISGLQAEDEADYYCCSYTSSFTVVFGGGTKVTVLG
notes: IgG1, lambda
B20: VG9B87 (antibody, human IgG1, kappa, V domains shown)
VH: QVQLVESGAEVKKPGASVKVSCKASGYTFTSEYIHWVRQAPGQGLEWMGIINPSGGSTSYAQRFQGRVTMTRDTSTSTVYMEVNSLRSEDTAVYYCARERGYSYGSFDYWGQGTLVTVSS
VL: EIVLTQSPSFLSASAGDRVTITCRASQGISSYLAWYQQKPEKAPKLLIYAASTLQSGVPSRFSGSGSGTEFTLTISSLQPEDFATYYCQQFNSYSLTFGGGTKLEIKR
notes: IgG1, kappa
B21: VG9B186 (antibody, human IgG1, lambda, V domains shown)
VH: QVTLRESGPVLVKPTETLTLTCTVSGFSLTNIRMSVSWIRQPPGEALEWLAHIFSNDEKSYNSSLKSRLTISRDTSKSQVVLTLTNVDPVDTATYYCARMRLPYGMDVWGQGTMVTVSS
VL: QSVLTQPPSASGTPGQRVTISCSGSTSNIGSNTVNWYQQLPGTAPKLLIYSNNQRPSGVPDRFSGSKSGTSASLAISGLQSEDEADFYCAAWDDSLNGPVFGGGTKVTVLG
notes: IgG1, lambda

One assay concerns the target T1, γδ T cell receptor on human γδ T cells (human).
T1 construct: also called AG000003021 (γδ T cells)
As to the kind of experiment: flow cytometry, dose-response (DRC) binding at 37°C on human γδ T cells. As to the method: (§1) Binding of antibodies to human γδ T cells or SKW cell lines expressing Vγ9/Vδ2, Vγ9/Vδ2 or Vγ5/Vδ2 was carried out by flow cytometry. Briefly, the cells were centrifuged at 300×g for 5 minutes and the pellet was resuspended in 34 ml fresh media (in RPMI+10% FBS). 50 μL of the cells were then plated (44K cells/well) into assay plates. Samples were incubated for one hour at 37° C. in tissue culture (TC) incubator followed by wash steps by adding 100 μl FACS staining buffer. Secondary detention antibodies (A647 conjugated anti-human IgG Fc specific antibody (2 μg/mL) along with AF488 anti mouse CD3, clone OKT3 at 1 ug/mL) were added at 50 μL/well to appropriate wells according to the plate map. After incubating for 60 minutes at 37° C. in the TC incubator, cells were again washed as described above. This is followed by resuspension in 20 μL/well running buffer containing 1:1000 dilution of Sytox blue dead cell stain and the plates were run on iQue Screener.
(§2) Gating and data analysis: Human anti-human Vγ9 antibody (VG9B2 mAb at 10 nM) was used to mark the gating of positive population. All cells were first gated for singlets on SCS-A vs. SCS-H dot plot, live/dead followed by CD3 positive population, and this subset of CD3 positive population was gated for Vγ9 positive binding using positive control mAb. Cells were also assessed for cell binding of control mAbs by RL1 (A647) Geomeans from the live cell population. Advanced metrics were used and normalization metrics were chosen to calculate fold over background wells containing secondary antibody alone (designated as ‘background’ within ForeCyt settings).
(In general: A flow cytometer gives signals particle by particle.)
As to B1, the “Max. Activity” value came out at 2500 fold over background.

For B2, the “Max. Activity” value turned out to be 2510 fold over background.

Regarding B3, the “Max. Activity” value came out at 2470 fold over background.

For the molecule B4, the “Max. Activity” value stood at 2590 fold over background.

As to B5, the “Max. Activity” value turned out to be 2360 fold over background.

Consider B6, for which the “Max. Activity” value came out at 2670 fold over background.

Regarding B7, the “Max. Activity” value turned out to be 2700 fold over background.

Turning to B8, the “Max. Activity” value is 2690 fold over background.

Consider B9, for which the “Max. Activity” value was 2370 fold over background.

Regarding B10, the “Max. Activity” value is 2780 fold over background.

The target in the next assay is T2, gamma-delta T cell receptor on human γδ T cells (human).
T2 construct: also called AG000003021 (γδ T cells)
As to the kind of experiment: flow cytometry, dose-response binding at 37 C, human γδ T cells. Here is the method: as §1, §2
Take B11: the “Max. Activity” value is 2290 fold over background.

Regarding B12, the “Max. Activity” value was found to be 1750 fold over background.

For the molecule B13, the “Max. Activity” value turned out to be 1820 fold over background.

As to B14, the “Max. Activity” value was 1980 fold over background.

As for B15, the “Max. Activity” value amounted to 1770 fold over background.

For B16, the “Max. Activity” value turned out to be 2310 fold over background.

B17: the “Max. Activity” value is 1750 fold over background.

Take B18: the “Max. Activity” value was determined as 1890 fold over background.

As for B19, the “Max. Activity” value was 2250 fold over background.

As for B20, the “Max. Activity” value was found to be 2330 fold over background.

As for B21, the “Max. Activity” value came out at 2290 fold over background.
